{"source": "paper PMC9445180", "target": "HTRA1^PD + 7-mer ABP (purified covalent complex of HTRA1^PD and biotin-DPMFKLV-phosphonate) (human) (UniProt Q92743)", "sequence (Q92743 161-379, one chain of several)": "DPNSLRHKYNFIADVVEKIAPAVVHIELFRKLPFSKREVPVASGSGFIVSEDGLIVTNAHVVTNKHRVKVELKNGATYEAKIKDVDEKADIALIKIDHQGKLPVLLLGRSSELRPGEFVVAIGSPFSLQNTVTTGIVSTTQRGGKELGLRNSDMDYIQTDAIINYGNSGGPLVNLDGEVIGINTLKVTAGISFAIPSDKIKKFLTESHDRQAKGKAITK", "test": "SPR; His6-tagged HTRA proteins (about 200 RU) captured with the His-capture kit on a CM5 chip, Fab15H6.v4 as analyte, single-cycle kinetics, three-fold dilutions from 1 nM or 1 μM; absence of binding verified with 3 μM Fab; Biacore S200, 25 °C, HBS-EP; 1:1 Langmuir model"}
{"binder": "Fab15H6.v4 (Fab, V domains shown) VH: EVQLVQSGAEVKKPGASVKVSCKASGYKFTDSEMHWVRQAPGQGLEWIGGVDPETEGAAYNQKFKGRATITRDTSTSTAYLELSSLRSEDTAVYYCTRGYDYDYALDYWGQGTLVTVSS VL: DIQMTQSPSSLSASVGDRVTITCRASSSVEFIHWYQQKPGKAPKPLISATSNLASGVPSRFSGSGSGTDFTLTISSLQPEDFATYYCQQWSSAPWTFGQGTKVEIK", "values": [{"measurement": "Kd", "value": 0.21, "unit": "nM"}]}
